Measured values from PMC12012885, “Cell-Free Reaction System for ATP Regeneration from D-Fructose” (ACS Synthetic Biology, 2025).

T1: Ps.LrhI (Stutzerimonas stutzeri, UniProt Q75WH8)
T1 construct: gene L-RhI; N-terminal hexa-His tag, synthetic gene in pET-28a, E. coli Rosetta(DE3) pLysS
T1 sequence (Q75WH8 1-430): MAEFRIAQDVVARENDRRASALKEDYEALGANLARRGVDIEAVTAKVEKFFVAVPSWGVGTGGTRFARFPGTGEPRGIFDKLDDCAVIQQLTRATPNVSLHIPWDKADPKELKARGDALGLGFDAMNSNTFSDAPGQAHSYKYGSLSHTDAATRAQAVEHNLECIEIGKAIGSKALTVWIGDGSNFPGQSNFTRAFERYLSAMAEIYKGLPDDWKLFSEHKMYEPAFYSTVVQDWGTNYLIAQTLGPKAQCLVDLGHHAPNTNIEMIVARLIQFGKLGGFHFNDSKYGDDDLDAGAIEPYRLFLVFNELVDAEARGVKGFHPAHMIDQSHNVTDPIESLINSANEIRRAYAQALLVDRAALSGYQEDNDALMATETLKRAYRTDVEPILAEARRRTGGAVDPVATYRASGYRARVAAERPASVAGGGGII


What was measured:
[1] = target: T1, Ps.LrhI; test: coupled assay with D-erythrulose reductase, NADH at […] nm; type: biochemical; conditions: 10 mM D-erythrose, 4 mM MgCl2, pH 7.0, 37 °C
[2] = target: Asp52 (UniProt position 70, TDGSTDYGILQ); conditions: cited from earlier work
[3] = substrate: O=C(CO)[C@H](O)CO; test: purified protein; type: biochemical, Bifidobacterium adolescentis; conditions: pH 6.5, 37 °C, 50 mM inorganic phosphate, 0.8 mM TPP, 3.8 mM MgCl2

Molecule | Km [3] [mM] | further results
OC1OC[C@@H](O)[C@H]1O (stereo partly drawn) [D-erythrose] |  | coupled assay with D-erythrulose reductase, NADH at 340 nm [1]: We characterized the D-erythrose activity of the enzyme and its stability under synthesis-like conditions
Hen egg white lysozyme (lysozyme C) (Gallus gallus) |  | pKa [2]: 3.33
Bad.F6Pkt (Bifidobacterium adolescentis ATCC 15703) (protein, homodimer) MTSPVIGTPWKKLNAPVSEEAIEGVDKYWRAANYLSIGQIYLRSNPLMKEPFTREDVKHRLVGHWGTTPGLNFLIGHINRLIADHQQNTVIIMGPGHGGPAGTAQSYLDGTYTEYFPNITKDEAGLQKFFRQFSYPGGIPSHYAPETPGSIHEGGELGYALSHAYGAVMNNPSLFVPAIVGDGEAETGPLATGWQSNKLINPRTDGIVLPILHLNGYKIANPTILSRISDEELHEFFHGMGYEPYEFVAGFDNEDHLSIHRRFAELFETVFDEICDIKAAAQTDDMTRPFYPMIIFRTPKGWTCPKFIDGKKTEGSWRSHQVPLASARDTEAHFEVLKNWLESYKPEELFDENGAVKPEVTAFMPTGELRIGENPNANGGRIREELKLPKLEDYEVKEVAEYGHGWGQLEATRRLGVYTRDIIKNNPDSFRIFGPDETASNRLQAAYDVTNKQWDAGYLSAQVDEHMAVTGQVTEQLSEHQMEGFLEGYLLTGRHGIWSSYESFVHVIDSMLNQHAKWLEATVREIPWRKPISSMNLLVSSHVWRQDHNGFSHQDPGVTSVLLNKCFNNDHVIGIYFPVDSNMLLAVAEKCYKSTNKINAIIAGKQPAATWLTLDEARAELEKGAAEWKWASNVKSNDEAQIVLAATGDVPTQEIMAAADKLDAMGIKFKVVNVVDLVKLQSAKENNEALSDEEFAELFTEDKPVLFAYHSYARDVRGLIYDRPNHDNFNVHGYEEQGSTTTPYDMVRVNNIDRYELQAEALRMIDADKYADKINELEAFRQEAFQFAVDNGYDHPDYTDWVYSGVNTNKQGAISATAATAGDNE | 36.2 ± 3.2 | 
Bad.F6Pkt (Bifidobacterium adolescentis ATCC 15703; H548N) (protein, homodimer) MTSPVIGTPWKKLNAPVSEEAIEGVDKYWRAANYLSIGQIYLRSNPLMKEPFTREDVKHRLVGHWGTTPGLNFLIGHINRLIADHQQNTVIIMGPGHGGPAGTAQSYLDGTYTEYFPNITKDEAGLQKFFRQFSYPGGIPSHYAPETPGSIHEGGELGYALSHAYGAVMNNPSLFVPAIVGDGEAETGPLATGWQSNKLINPRTDGIVLPILHLNGYKIANPTILSRISDEELHEFFHGMGYEPYEFVAGFDNEDHLSIHRRFAELFETVFDEICDIKAAAQTDDMTRPFYPMIIFRTPKGWTCPKFIDGKKTEGSWRSHQVPLASARDTEAHFEVLKNWLESYKPEELFDENGAVKPEVTAFMPTGELRIGENPNANGGRIREELKLPKLEDYEVKEVAEYGHGWGQLEATRRLGVYTRDIIKNNPDSFRIFGPDETASNRLQAAYDVTNKQWDAGYLSAQVDEHMAVTGQVTEQLSEHQMEGFLEGYLLTGRHGIWSSYESFVHVIDSMLNQHAKWLEATVREIPWRKPISSMNLLVSSHVWRQDNNGFSHQDPGVTSVLLNKCFNNDHVIGIYFPVDSNMLLAVAEKCYKSTNKINAIIAGKQPAATWLTLDEARAELEKGAAEWKWASNVKSNDEAQIVLAATGDVPTQEIMAAADKLDAMGIKFKVVNVVDLVKLQSAKENNEALSDEEFAELFTEDKPVLFAYHSYARDVRGLIYDRPNHDNFNVHGYEEQGSTTTPYDMVRVNNIDRYELQAEALRMIDADKYADKINELEAFRQEAFQFAVDNGYDHPDYTDWVYSGVNTNKQGAISATAATAGDNE | 48.7 ± 0.4 | 
